Results from the supplement of paper PMC10126150.
± gives the standard deviation of the averaged measurements.

System: ATP
Assay: switch fluorescence ratio, 500 uM ATP over buffer (Cy3 cluster intensity, sum of 5 cycles each) (fold (ratio)); higher = stronger signal-on switching upon ATP binding; sequences stand for … in TCGTCGGCAGCGTCAGATGTGTATAAGAGACAGTTTTTTTTTTTTTTTTTTTTTTTTT…TC
Settings: aptamer strand: ATP DNA aptamer (quencher-CACCTGGGGGAGTATTGCGGAGGAAGG + anchor), 100 nM annealed; ATP concentration: 500 uM
In short: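 Switching-strand clusters labelled with Cy3 on a modified Illumina MiSeq flow-cell were annealed to 100 nM quencher-labelled ATP aptamer, imaged in selection buffer, and re-imaged after 15 min with 500 uM ATP at 22 °C. This was done over five cycles with NaOH stripping and re-annealing in between. The fluorescence ratio is summed target-cycle over summed buffer-cycle Cy3 intensity per cluster, averaged per switch-domain sequence, excluding clusters outside 100-1000 RFU.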
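Also: ATP exposure 15 min at 22 °C before imaging.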

Sequence | switch fluorescence ratio
ATGAGTATTT | 0.979 ± 0.046
TTTAGATTCA | 1.001 ± 0.0043
GAGGGGTGGG | 1.04 ± 0.076
TACTTTGTGA | 1.1 ± 0.15
CGGGAGCTGG | 1.02 ± 0.023
TTGGGAAGGC | 0.972 ± 0.035
GGAATGGCTT | 0.999 ± 0.0091
TTATCTAGGA | 1 ± 0.028
GAAGAGGAGG | 1.04 ± 0.011
GAAAACATAG | 1.01 ± 0.02
GAGATAGGTA | 0.997 ± 0.024
TTTGACTTCA | 1.03 ± 0.018
ATAACCCTTT | 1.12 ± 0.18
GAAGGGGTCA | 0.9904 ± 0.0089
TTTGTCGCCG | 1.01 ± 0.029
GGATTTGTGA | 1.02 ± 0.022
TTGGGGTAAT | 1.01 ± 0.022
GGAGCGGGGG | 1.02 ± 0.014
ATAATTTGGT | 0.982 ± 0.038
AGCTGAGGGA | 1.015 ± 0.0066
CGTCACATGT | 1.009 ± 0.0048
GATGTAGGAT | 0.978 ± 0.014
CTCAGGGGGT | 0.9759 ± 0.007

Sequence | switch fluorescence ratio
TTTAGCCTCG | 0.992 ± 0.046
ATGTAGGCAG | 0.961 ± 0.029
TTTGATGATA | 0.981 ± 0.014
GGTTTGGGTT | 0.998 ± 0.037
TTTATGGGTG | 1.01 ± 0.016
ATGTTTGGGC | 0.9597 ± 0.0085
ATCATGTTAT | 0.986 ± 0.011
CTTGTACTAA | 1.012 ± 0.0062
TTTATTATGC | 1.03 ± 0.026
GTTTTCAACA | 0.98916 ± 0.00045
TTTTTGCGCT | 1.04 ± 0.047
GAATTTAAAG | 1.007 ± 0.0018
CGTTGAGGTT | 0.979 ± 0.026
TCATTGATTT | 0.978 ± 0.022
TAAAAGATCG | 1.03 ± 0.034
TTCTGTTAAC | 1.01 ± 0.025
CGCTACGTGG | 0.99 ± 0.028
GTCATACCTT | 1.2 ± 0.1
CAGCGGGACG | 1.02 ± 0.035
GTATTTTTTG | 0.9958 ± 0.0069
TTTGTGGGGG | 1.01 ± 0.041
ATCCGATACG | 1.18 ± 0.023
TTTAAAGGTT | 1.02 ± 0.054

Sequence | switch fluorescence ratio
GCACTTTAGC | 1.03 ± 0.018
TGCAAGTGGT | 1.54 ± 0.75
TTGTTTGGTT | 0.983 ± 0.034
CTGAGAACTT | 0.983 ± 0.055
TGATATTTGT | 1.01 ± 0.027
TGGGGTGATC | 1 ± 0.029
AGTAAAGTTC | 1.03 ± 0.028
GGGGTACGCA | 1.02 ± 0.015
TCAGTCTGCC | 1.03 ± 0.052
GTGGTATCAC | 1 ± 0.011
ACTAACTAAT | 1.06 ± 0.056
TTACGTAATA | 1.34 ± 0.023
ATATACGGTA | 1.15 ± 0.03
GTTACCCAGT | 1.049 ± 0.0098
GGGTGACAAC | 1.002 ± 0.0084
ATCTTTGTGT | 1.01 ± 0.043
TTATCGGGCT | 1.02 ± 0.023
TTGGGATGAG | 1 ± 0.019
GTTAGGTTAT | 1 ± 0.018
TTTCTCGGCA | 1.44 ± 0.42
CTAACTTATT | 1.01 ± 0.013
GAATGGTCCC | 1.02 ± 0.012
TGTTAAGGAA | 1.02 ± 0.029

Sequence | switch fluorescence ratio
CGGTAACGAA | 1.04 ± 0.014
ACGGGGTTGG | 1.03 ± 0.024
GGTGTGATTG | 0.977 ± 0.04
TGTGTGGCGC | 1.02 ± 0.032
CATTTAAGAT | 0.997 ± 0.024
GAAACGGATG | 0.993 ± 0.041
GGAACTGTGC | 0.948 ± 0.12
CTGTCCTTTT | 1.11 ± 0.17
CGTACTGTGG | 0.9977 ± 0.0099
CTGGGAGCAC | 1.89 ± 0.15
GATCATTGAC | 1.066 ± 0.0057
GGCGCAATTT | 2.4 ± 0.27
GCCTGCGGGA | 1.1 ± 0.13
AAAATTGCAT | 0.993 ± 0.021
AAAAGATCAT | 0.999 ± 0.012
TTATAAGACT | 1.044 ± 0.0064
CTCACTTGGG | 1.024 ± 0.0012
CTCGCCGCGG | 1.08 ± 0.038
GATCATCAGT | 0.991 ± 0.023
ATGTGATAGG | 1.01 ± 0.058
ATCGAGTAGG | 1.008 ± 0.005
TCCCTGTTTT | 0.991 ± 0.016
TTGTCCTCCT | 1.11 ± 0.11

Sequence | switch fluorescence ratio
CTTGGAGGAA | 0.999 ± 0.044
GCAACTGATC | 1.19 ± 0.031
CACGGGGTTG | 0.982 ± 0.069
CTTGGGATCA | 0.971 ± 0.011
ACTTTATGTT | 1.041 ± 0.0015
TTTGATTTTC | 0.976 ± 0.049
GGTTTGAGGT | 0.993 ± 0.027
CAGGCTGACC | 0.974 ± 0.025
TTTGGCTTAA | 0.9962 ± 0.006
TTTTGGTGG | 0.974 ± 0.033
AAAGTTGCTA | 0.985 ± 0.019
TTTGCTGGCG | 0.935 ± 0.024
ATGCGAAACC | 1.02 ± 0.051
TTTGATGCGT | 1.018 ± 0.0095
CAAATCAGGA | 1 ± 0.038
CGGCCGGAGT | 0.983 ± 0.0086
CGGTGCTTTT | 1 ± 0.011
CAGAGGCCAG | 0.993 ± 0.025
ATACGGTAGG | 1.006 ± 0.01
AACGCATAGG | 1.176 ± 0.0078
TTGGTAAAGT | 1.03 ± 0.071
CTATATAGGT | 1.014 ± 0.0069
TTATTGAATT | 0.998 ± 0.045

Sequence | switch fluorescence ratio
GAGATTGCGT | 1.01 ± 0.028
ATCTTTAAGT | 0.993 ± 0.015
ACGATGAGGA | 0.982 ± 0.07
GATAGTGTCG | 1.04 ± 0.045
GTCTAATAGT | 1.03 ± 0.015
TATAATGCTC | 1.01 ± 0.014
CCGTAAGCAG | 1.96 ± 0.034
GCCTGCATTT | 1.02 ± 0.021
GAAGATGTAG | 0.9558 ± 0.0033
CGAGGCCGGG | 1.01 ± 0.015
TCCTAGGGGT | 2.44 ± 1.2
ATTATCGGTA | 0.974 ± 0.058
TAAGATGAGA | 0.936 ± 0.0097
AAAAAGAAGA | 0.976 ± 0.033
CGGTAGGGGC | 0.968 ± 0.015
CCGTTTCGTG | 0.9948 ± 0.0046
ACTGGTATGG | 1.01 ± 0.025
TACTAGGCAA | 1.21 ± 0.04
TTTTAAAGGT | 1.01 ± 0.024
GGTTTCATAT | 0.996 ± 0.026
TAAGCTTTTT | 1 ± 0.033
TTCATAGTAC | 1.2 ± 0.22
TATGAGGCTT | 0.999 ± 0.028

Sequence | switch fluorescence ratio
GGACGTTGGT | 1.02 ± 0.022
TTTTAGAGTA | 1.003 ± 0.009
CGTATTTAAA | 1.01 ± 0.013
AACGGAAAGG | 1.01 ± 0.017
GGTTGGGATC | 0.9513 ± 0.0082
TATGCGGGGC | 1.1 ± 0.12
GGGAGCTGAA | 1.04 ± 0.04
AGTGAGAT | 0.9943 ± 0.0097
CCATGAGCAG | 2.06 ± 0.11
CGACGTTCAC | 1.96 ± 0.051
CGGACTATAT | 1.07 ± 0.032
TCGGTCGTTT | 0.976 ± 0.015
TGAGCTAGGT | 1 ± 0.033
TTGGTTGGTG | 1.03 ± 0.11
TCGCGGGAAG | 1.015 ± 0.0054
TGTACTAGGG | 1.001 ± 0.0069
TTAAGGGGAT | 1 ± 0.032
GCTGCTGGCC | 0.999 ± 0.044
ATGGGGTCGG | 1 ± 0.035
